According to the supplement of paper PMC7877785:
± gives the uncertainty stated by the source.

Test: self-splicing fitness, log relative to wild type (ln ratio); higher = more splicing; Tetrahymena group I intron in knt gene, E. coli kanamycin selection, DiMSum; sequences stand for … in CUCUCU…GGAGGGAAAAGUUAUCAGGCAUGCACCUGGUAGCUAGUCUUUAAACCAAUAGAUUGCAUCGGUUUAAAAGGCAAGACCGUCAAAUUGCGGGAAAGGGGUCAACAGCCGUUCAGUACCAAGUCUCAGGGGAAACUUUGAGAUGGCCUUGCAAAGGGUAUGGUAAUAAGCUGACGGACAUGGUCCUAACCACGCAGCCAAGUCCUAAGUCAACAGAUCUUCUGUUGAUAUGGAUGCAGUUCACAGACUAAAUGUCGGUCGGGGAAGAUGUAUUCUUCUCAUAAGAUAUAGUCGGACCUCUCCUUAAUGGGAGCUAGCGGAUGAAGUGAUGCAACACUGGAGCCGCUGGGAACUAAUUUGUAUGCGAAAGUAUAUUGAUUAGUUUUGGAGUACUCGUGGUCG
How it was run: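 Six replicate transformations of E. coli BL21(DE3) with a pET-22b(+) library were grown overnight at 37°C or 30°C. The library randomised all eight P1ex-region intron nucleotides, the intron lying in the knt kanamycin-resistance gene, and plates were LB agar with or without 25 μg/mL kanamycin plus 100 μg/mL carbenicillin, 50 μM IPTG and 0.2% rhamnose. Pooled colonies were amplicon-sequenced on an Illumina HiSeq 2500, and fitness is the DiMSum error-weighted combination of wild-type-normalised replicate fold changes, kanamycin versus none.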

Sequence	self-splicing fitness (ln) (30 °C)	self-splicing fitness (ln) (37 °C)
AGCGAGCAAUAUUACGACGG	-3.17 ± 0.44	-1.81 ± 0.26
CGUAAGCAAUAUUACGGAGG	-2.16 ± 0.14	-1.57 ± 0.17
CUGUAGCAAUAUUACGACUA	-1.74 ± 0.42	-0.817 ± 0.3
ACACAGCAAUAUUACGGCCU	-0.094 ± 0.086	-0.0787 ± 0.12
CCGCAGCAAUAUUACGAUUA	-3.03 ± 0.23	-2.72 ± 0.29
UGCCAGCAAUAUUACGUGAG	-2.12 ± 0.11	-0.54 ± 0.097
GUGUAGCAAUAUUACGUAUG	-3.21 ± 0.23	-2.78 ± 0.27
AGUAAGCAAUAUUACGACAU	-0.346 ± 0.013	-0.078 ± 0.033
CGGCAGCAAUAUUACGACGU	-1.45 ± 0.066	-0.471 ± 0.071
UUGUAGCAAUAUUACGGUUA	-1.41 ± 0.14	-0.784 ± 0.13
GGCUAGCAAUAUUACGAGUU	-1.95 ± 0.11	-0.414 ± 0.11
CCGUAGCAAUAUUACGCACA	-3.79 ± 0.31	-1.44 ± 0.36
GGGCAGCAAUAUUACGUUCU	-2.35 ± 0.19	-1.2 ± 0.14
AGAAAGCAAUAUUACGAUAU	-1.07 ± 0.096	-0.792 ± 0.11
ACUAAGCAAUAUUACGAACG	-1.1 ± 0.1	-0.438 ± 0.15
CUCGAGCAAUAUUACGGGUG	-2.04 ± 0.077	-1.88 ± 0.095
ACAGAGCAAUAUUACGUCCA	-2.34 ± 0.2	-2.25 ± 0.26
UCCUAGCAAUAUUACGGGUU	-2.26 ± 0.13	-1.78 ± 0.15
GUCAAGCAAUAUUACGAACC	-3.76 ± 0.42	–

Sequence	self-splicing fitness (ln) (30 °C)	self-splicing fitness (ln) (37 °C)
AAAAAGCAAUAUUACGUAGG	-1.7 ± 0.093	-1.66 ± 0.11
GCUCAGCAAUAUUACGGAAA	-1.62 ± 0.15	-0.337 ± 0.12
CAAUAGCAAUAUUACGCCGA	-2.61 ± 0.26	-1.59 ± 0.17
CGGAAGCAAUAUUACGCAAU	-3 ± 0.26	-2.69 ± 0.26
CGUCAGCAAUAUUACGUCAA	-2.64 ± 0.11	-1.61 ± 0.1
UAUUAGCAAUAUUACGACAG	-1.58 ± 0.18	-0.556 ± 0.19
AGAGAGCAAUAUUACGAUGU	-2.52 ± 0.41	-2.69 ± 0.36
GAUCAGCAAUAUUACGGUAA	-0.559 ± 0.075	0.194 ± 0.07
CUUCAGCAAUAUUACGGGAU	-2.14 ± 0.084	-1.34 ± 0.095
GAUCAGCAAUAUUACGCGCG	-0.222 ± 0.14	0.0103 ± 0.15
CACCAGCAAUAUUACGCGUC	-2.87 ± 0.15	-0.883 ± 0.12
AAAGAGCAAUAUUACGGAUA	-2.75 ± 0.27	-1.92 ± 0.3
GCGUAGCAAUAUUACGGGCG	-2.97 ± 0.22	-2.09 ± 0.22
CAUGAGCAAUAUUACGGAGU	-4.1 ± 0.4	-3.1 ± 0.31
UUCAAGCAAUAUUACGAUAC	-2.1 ± 0.17	-2.58 ± 0.48
UGUAAGCAAUAUUACGCAUA	-0.865 ± 0.18	-1.69 ± 0.17
CUUCAGCAAUAUUACGACUA	-2.12 ± 0.39	–
CAGGAGCAAUAUUACGAGGA	-3.55 ± 0.25	-3.69 ± 0.29
AACCAGCAAUAUUACGCACG	-0.891 ± 0.055	-0.215 ± 0.078
